In patent US20200277350A1 (DINGFU BIOTARGET, published 2020):

Biological target: T1, Human IL10R1 (R&D, 9100-R1-050) (human, UniProt Q13651 22-235)
T1 construct: Bought protein coated on the ELISA plate; also called hIL10R1; human IL10R1 proteins
T1 sequence (looked up): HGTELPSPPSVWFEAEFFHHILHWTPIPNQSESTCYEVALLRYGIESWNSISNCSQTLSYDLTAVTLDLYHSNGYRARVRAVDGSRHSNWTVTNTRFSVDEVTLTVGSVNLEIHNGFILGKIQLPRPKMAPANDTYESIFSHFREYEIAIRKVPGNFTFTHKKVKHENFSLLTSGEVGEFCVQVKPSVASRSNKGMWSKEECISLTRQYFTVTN
Assay: ELISA, plate coated with human IL10R1, detection with goat anti-hIgG-HRP
Experimental: Human IL10R1 (R&D, 9100-R1-050) was diluted to 5 μg/mL with coating buffer (50 mM Na₂CO₃, NaHCO₃ pH 9.6), 100 μL/well, overnight at 4° C. After washing, the plates were sealed with 3% BSA-PBS for 1 h at 37° C. Then, all samples were respectively diluted from 10000 ng/mL and were diluted 3-fold to a total of 11 concentrations, with the diluent (1% BSA-PBS) as a control, incubated at 37° C. for 2 h. After washing, Goat anti-hIgG-HRP (Sigma, A0170) was added and incubated at 37° C. for 1 h. The soluble one-component TMB substrate developing solution was added, and the developing was performed in dark at room temperature for 5-10 min. 2 N H₂SO₄ 50 μL/well was added to terminate the color development reaction.

EC50: 0.0123 µg/mL
B1: Reverse-(IL10)2-Fc9 (Fc fusion)
chain 1: EPKSSDKTHTCPPCPAPELLGGPSVFLFPPKPKDTLMISRTPEVTCVVVDVSHEDPEVKFNWYVDGVEVHNAKTKPREEQYNSTYRVVSVLTVLHQDWLNGKEYKCKVSNKALPAPIEKTISKAKGQPREPQVYTLPPSRDELTKNQVSLSCGVKGFYPSDIAVEWESNGQPENNYKTTPPVLDSDGSFKLASKLTVDKSRWQQGNVFSCSVMHEALHNHYTQKSLSLSPGKGGGGSGGGGSGGGGSSPGQGTQSENSCTHFPGNLPNMLRDLRDAFSRVKTFFQMKDQLDNLLLKESLLEDFKGYLGCQALSEMIQFYLEEVMPQAENQDPDIKAHVNSLGENLKTLRLRLRRCHRFLPCENKSKAVEQVKNAFNKLQEKGIYKAMSEFDIFINYIEAYMTMKIRNGGGGSGGGGSGGGGSSPGQGTQSENSCTHFPGNLPNMLRDLRDAFSRVKTFFQMKDQLDNLLLKESLLEDFKGYLGCQALSEMIQFYLEEVMPQAENQDPDIKAHVNSLGENLKTLRLRLRRCHRFLPCENKSKAVEQVKNAFNKLQEKGIYKAMSEFDIFINYIEAYMTMKIRN
chain 2: DKTHTCPPCPAPELLGGPSVFLFPPKPKDTLMISRTPEVTCVVVDVSHENPEVKFNWYVDGVEVHNAKTKPREEQYNSTYRVVSVLTVLHQDWLNGKEYKCKVSNKALPAPIEKTISKAKGQPREPQVYTLPPSRDELTKNQVSLWCLVKGFYPSDIAVEWESNGQPENNYKTTPPVLDSDGSFFLYSALTVDKSRWQQGNVFSCSVMHEALHNHYTQKSLSLSPGK
notes: also called proteinaceous heterodimer of Group C
